{"source": "patent US20110312897A1", "about": "(ROCKEFELLER UNIVERSITY, published 2011)", "binders": {"B1": {"name": "chromodomain of mouse CBX7 (other, UniProt Q8VDS3 1-70, looked up)", "chain": "MELSAIGEQVFAVESIRKKRVRKGKVEYLVKWKGWPPKYSTWEPEEHILDPRLVMAYEEKEERDRASGYR", "notes": "domain: chromodomain; also called Cbx7-CD protein; chromodomain of Pc (mouse CBX7)"}}, "target": "T1, cleaved H3 tail peptide (H3 22-37), methylated at K27 (not fully specified; also: K27 methylated, degree not given here, biotinylated, site not given here)", "T1 construct": "Mimics the H3 tail after cleavage between A21 and T22; also called cleaved peptide (amino acid residues 22-37)", "T1 peptide": "TKAARK(Me)SAPATGGVKK", "assay": "fluorescence anisotropy", "note": "Where no end group is shown, it is not given here."}
{"binder": "B1", "values": [{"measurement": "fold decrease of binding against the non-cleaved peptide (residues 18-37)", "value": 3, "unit": "fold"}]}
